Experimental data as given in patent US20250197487A1 (AKESO BIOPHARMA, published 2025).

Tests used:
[1] = biological target: T1, PD-1 on the surface of 293T-PD-1 cells (UniProt Q15116 25-288, limits assumed); assay: FACS (2nd), 293T-PD-1 cells, antibody 0.41 nM
T1 construct: whole, on cells
Method: (§1) Then PBS was used for washing, and 300 μL of PBSA was used to resuspend the cells, and fluorescence signals (MFI) were detected with FITC channel on a flow cytometer.

[2] = biological target: T1, PD-1 on the surface of 293T-PD-1 cells; assay: FACS (2nd), 293T-PD-1 cells, antibody 11 nM
Method: as §1

[3] = biological target: T1, PD-1 on the surface of 293T-PD-1 cells; assay: FACS, 293T-PD-1 cells, antibody 100 nM
Method: as §1

fusion protein PD-1-mFc [4] = biological target: T2, fusion protein PD-1-mFc (human, UniProt Q15116 25-170); assay: indirect ELISA, antibody 0 (blank)
T2 construct: also called human PD-1-mFc; not shown: mFc (Fc of mouse IgG)

fusion protein PD-1-hFc = biological target: T3, fusion protein PD-1-hFc (UniProt Q15116 25-170); assay: competitive ELISA, PD-1-hFc coat 0.5 µg/mL, competitor PD-L1-mFc 0.3 µg/ml
T3 construct: not shown: hFc (Fc of human IgG)
Method: The microplate was coated with PD-1-hFc and incubated overnight at 4° C. […] After incubation at 37° C. for 30 minutes, the microplate was washed and patted dry. Then enzyme-labeled secondary antibody was added, and the microplate was incubated at 37° C. for 30 minutes. After the microplate was washed and patted dry, TMB was added for color developing for 5 minutes, and then stop solution was added to terminate the color development. […] SoftMax Pro 6.2.1 was used to analyze and process the data.

[5] = biological target: T1, PD-1 on the surface of 293T-PD-1 cells; assay: FACS, 293T-PD-1 cells, antibody 11.11 nM
Method: as §1

[6] = biological target: T1, PD-1 on the surface of 293T-PD-1 cells; assay: competitive FACS, 293T-PD-1 cells, competitor PD-L1-mFc 20 nM
Method: (§2) Then 500 μL of 1% PBSA was added, and the mixture was centrifuged at 5600 rpm for 5 minutes to remove the supernatant. 100 μL of FITC […] anti mouse antibody diluted at a ratio of 1:500 was then added into each tube, and the mixture was incubated on ice for 40 minutes in the absence of light after being mixed well. Then the mixture was centrifuged, washed and resuspended, and then transferred to a loading tube for testing.

[7] = biological target: T1, PD-1 on the surface of 293T-PD-1 cells; assay: FACS (2nd), 293T-PD-1 cells, antibody 0.14 nM
Method: as §1

[8] = biological target: T1, PD-1 on the surface of 293T-PD-1 cells; assay: FACS (2nd), 293T-PD-1 cells, antibody 3.7 nM
Method: as §1

[9] = biological target: T1, PD-1 on the surface of 293T-PD-1 cells; assay: FACS (2nd), 293T-PD-1 cells
Method: as §1

[10] = biological target: T1, PD-1 on the surface of 293T-PD-1 cells; assay: FACS (2nd), 293T-PD-1 cells, antibody 30 nM
Method: as §1

[11] = biological target: T1, PD-1 on the surface of 293T-PD-1 cells; assay: FACS, 293T-PD-1 cells, antibody 3.70 nM
Method: as §1

[12] = biological target: T1, PD-1 on the surface of 293T-PD-1 cells; assay: FACS, 293T-PD-1 cells, antibody 33.33 nM
Method: as §1

[13] = biological target: T1, PD-1 on the surface of 293T-PD-1 cells; assay: FACS (2nd), 293T-PD-1 cells, antibody 0.014 nM
Method: as §1

fusion protein PD-1-mFc [14] = biological target: T2, fusion protein PD-1-mFc; assay: indirect ELISA, PD-1-mFc coat 0.5 µg/mL
Method: (§3) The microplate was coated with human PD-1-mFc and incubated overnight at 4° C. After being blocked with 1% BSA at 37° C. for 2 hours, the microplate was added with antibody, and then incubated at 37° C. for 30 minutes. […] After the microplate was washed and patted dry, TMB (Neogen, 308177) was added for color developing for 5 minutes, and then stop solution was added to terminate the color development. Then the microplate was put into a microplate reader immediately, and the OD value of each well in the microplate was read at 450 nm. SoftMax Pro 6.2.1 was used to analyze and process the data.

[15] = biological target: T1, PD-1 on the surface of 293T-PD-1 cells; assay: FACS, 293T-PD-1 cells, antibody 0.14 nM
Method: as §1

[16] = biological target: T1, PD-1 on the surface of 293T-PD-1 cells; assay: FACS (2nd), 293T-PD-1 cells, antibody 1.23 nM
Method: as §1

fusion protein PD-1-mFc [17] = biological target: T2, fusion protein PD-1-mFc; assay: indirect ELISA (2nd), PD-1-mFc coat 0.5 µg/mL
Method: as §3

[18] = biological target: T1, PD-1 on the surface of 293T-PD-1 cells; assay: competitive FACS (2nd), 293T-PD-1 cells, competitor PD-L1
Method: as §2

[19] = biological target: T1, PD-1 on the surface of 293T-PD-1 cells; assay: FACS (2nd), 293T-PD-1 cells, antibody 100 nM
Method: as §1

[20] = biological target: T1, PD-1 on the surface of 293T-PD-1 cells; assay: FACS, 293T-PD-1 cells, antibody 1.23 nM
Method: as §1

[21] = biological target: T1, PD-1 on the surface of 293T-PD-1 cells; assay: FACS, 293T-PD-1 cells
Method: as §1

[22] = biological target: T1, PD-1 on the surface of 293T-PD-1 cells; assay: FACS, 293T-PD-1 cells, antibody 0.41 nM
Method: as §1

fusion protein PD-1-mFc [23] = biological target: T2, fusion protein PD-1-mFc; assay: BLI (Fortebio), antibody on AHC sensor, PD-1-mFc 0.62-50 nM, 1:1 fit
Method: The sample dilution buffer was PBS (0.02% Tween-20, 0.1% BSA, pH7.4). 5 μg/mL antibody was immobilized to an AHC sensor with the immobilization height being about […]. The sensor was equilibrated in a buffer for 60 s, and the antibody immobilized to the sensor bound to PD-1-mFc at a concentration of 0.62-50 nM (three-fold gradient dilution) for 120 s, and then the antigen and antibody dissociated in the buffer for 300 s. The data were analyzed by 1:1 model fitting to obtain affinity constants. The data acquisition software was Fortebio Data Acquisition 7.0, and the data analysis software was Fortebio Data Analysis 7.0.

T1 sequence (Q15116 25-288 limits assumed): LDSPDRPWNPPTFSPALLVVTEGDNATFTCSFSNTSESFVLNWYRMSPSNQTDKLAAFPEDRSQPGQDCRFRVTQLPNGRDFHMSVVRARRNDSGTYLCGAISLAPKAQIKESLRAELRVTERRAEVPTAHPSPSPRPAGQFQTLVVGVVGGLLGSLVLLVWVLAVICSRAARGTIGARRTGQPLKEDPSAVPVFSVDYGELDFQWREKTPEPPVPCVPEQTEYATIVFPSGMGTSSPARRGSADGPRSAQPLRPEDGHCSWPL
T2 sequence (Q15116 25-170): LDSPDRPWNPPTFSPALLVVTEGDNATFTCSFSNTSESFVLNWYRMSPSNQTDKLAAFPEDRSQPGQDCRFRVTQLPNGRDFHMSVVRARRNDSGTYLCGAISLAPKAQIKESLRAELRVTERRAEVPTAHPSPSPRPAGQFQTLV
T3 sequence (Q15116 25-170): as above

MFI [1]: 69.2
MFI [2]: 868
MFI [3]: 671
OD 450 nm (fusion protein PD-1-mFc [4]): 0.053
EC50 (fusion protein PD-1-hFc): 0.745 nM
MFI [5]: 600
EC50 [6]: 4.37 nM
MFI [7]: 29.6
MFI [8]: 423
EC50 [9]: 3.61 nM
MFI [10]: 831
MFI [11]: 409
MFI [12]: 655
MFI [13]: 7.4
EC50 (fusion protein PD-1-mFc [14]): 0.037 nM
MFI [15]: 48.1
MFI [16]: 176
EC50 (fusion protein PD-1-mFc [17]): 0.045 nM
EC50 [18]: 9.21 nM
MFI [19]: 814
MFI [20]: 202
EC50 [21]: 2.9 nM
MFI [22]: 99.7
Kd (fusion protein PD-1-mFc [23]): 0.164 nM
B1: anti-PD-1 humanized antibody 14C12H1L1 (antibody, V domains shown)
VH: EVQLVESGGGLVQPGGSLRLSCAASGFAFSSYDMSWVRQAPGKGLDWVATISGGGRYTYYPDSVKGRFTISRDNSKNNLYLQMNSLRAEDTALYYCANRYGEAWFAYWGQGTLVTVSS
VL: DIQMTQSPSSMSASVGDRVTFTCRASQDINTYLSWFQQKPGKSPKTLIYRANRLVSGVPSRFSGSGSGQDYTLTISSLQPEDMATYYCLQYDEFPLTFGAGTKLELK
